Data on two molecules can be found in PMC11497264, “SARS‐CoV‐2 Spike Protein‐Derived Cyclic Peptides as Modulators of Spike Interaction with GRP78” (Chembiochem, 2024).

Bridge positions count the residues as written; N and C are the ends.

B2: human glucose-regulated protein GRP78 (natural protein)
chain: not shown
notes: also called heat shock protein A5; HSPA5; source: Escherichia coli, recombinant; bought: Abcam

In assay [1] the target is B2. Nature of the assay: SPR. Particulars: both partners purified.
Assay [2] concerns the target T1, S1 subunit (aa 14-685) of the spike protein of SARS-CoV-2 (SARS-CoV-2, UniProt P0DTC2 14-685).
T1 construct: also called soluble S1; wild-type S1 protein
Nature of the assay: SPR. Particulars: both partners purified.

B1: Pep42, 13-mer cyclopeptide (peptide)
peptide: H-CTVALPGGYVRVC-NH2
modifications: disulfide 1-13
SMILES: CC(C)C[C@@H]1NC(=O)[C@H](C)NC(=O)[C@H](C(C)C)NC(=O)[C@H]([C@@H](C)O)NC(=O)[C@@H](N)CSSC[C@@H](C(N)=O)NC(=O)[C@H](C(C)C)NC(=O)[C@H](CCCNC(=N)N)NC(=O)[C@H](C(C)C)NC(=O)[C@H](Cc2ccc(O)cc2)NC(=O)CNC(=O)CNC(=O)[C@@H]2CCCN2C1=O
notes: source: synthetic peptide (Fmoc SPPS, disulphide cyclisation with DMSO, HPLC purified)
What is called IC50 is the concentration needed to halve the response being measured. A low value points to inhibition by little substance. What is called Kd is a measure of binding affinity in units of concentration. On to B1, for which, in assay [1], the half-maximal inhibitory concentration (IC50) stood at 5900 nM and the dissociation constant Kd worked out at 3400 nM.
Turning to B2, in assay [2], the “KD in the presence of 12.5 uM LCP O” value came to 751 nM and the “KD in the presence of 12.5 uM LCP W” value came to 137 nM.
